From US20070207507A1 come the findings set out here.

Assay [1] has as its target TAG-72. The assay can be described thus: 99mTc-labeled phage on LS-174T colon cancer cells expressing TAG-72.
The target in assay [2] is myeloperoxidase. Put plainly: 99mTc-phage incubated with 125I-myeloperoxidase, separated on a spin column / Sepharose 6B column.
Assay [3] has as its target myeloperoxidase. The assay can be described thus: SPR (Biacore 1000), biotinylated myeloperoxidase on a streptavidin chip, peptide at 1 uM, fitted curve.
In assay [4] the target is myeloperoxidase. The assay can be described thus: SE-HPLC on a Superose-12 column, 5 min incubation.
Assay [5] concerns the target myeloperoxidase. The assay can be described thus: SE-HPLC on a Superose-12 column, 2 hours incubation.

Bridges are numbered along the chain shown (N, C = ends). Where no end group is shown, it is not given here.

Chain of myeloperoxidase (P05164 165-745): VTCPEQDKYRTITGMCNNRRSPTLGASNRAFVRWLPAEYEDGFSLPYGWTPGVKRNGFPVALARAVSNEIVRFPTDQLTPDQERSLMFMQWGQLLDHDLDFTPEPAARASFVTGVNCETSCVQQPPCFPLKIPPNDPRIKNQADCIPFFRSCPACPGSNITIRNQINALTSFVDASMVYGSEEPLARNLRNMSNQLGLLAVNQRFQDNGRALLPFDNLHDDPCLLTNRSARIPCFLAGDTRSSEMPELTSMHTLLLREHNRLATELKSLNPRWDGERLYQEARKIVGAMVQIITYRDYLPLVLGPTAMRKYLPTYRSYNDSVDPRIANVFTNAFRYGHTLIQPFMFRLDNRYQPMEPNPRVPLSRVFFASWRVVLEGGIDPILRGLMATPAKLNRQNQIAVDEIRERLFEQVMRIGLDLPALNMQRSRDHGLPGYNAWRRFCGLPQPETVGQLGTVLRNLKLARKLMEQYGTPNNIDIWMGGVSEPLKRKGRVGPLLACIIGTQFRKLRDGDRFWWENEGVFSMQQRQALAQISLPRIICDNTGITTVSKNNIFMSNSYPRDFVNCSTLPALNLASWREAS

B1: control phage clone A3-12 (f88-4/Cys6 phage displaying a 16 mer cysteine-constrained peptide in pVIII) (peptide)
peptide: MNYYCHQTTKTCRTHS
modifications: disulfide 5-12 (inferred); also: displayed on phage, cysteine-constrained, 99mTc-labelled
B1: the Relative Binding (the control phage, the reference itself) in assay [1] was 1 fold. The molecule AMPVCSLDRKACTAYQ (disulfide 5-12; also: phage labelled with 99mTc via MAG3) [phage clone MPO-1 (f88-4/Cys6 phage displaying a 16 mer cysteine-constrained peptide in pVIII)] had a Relative Binding (% bound after subtraction of control phage MPO-4) in assay [2] of 3.9%.

B2: phage clone A3-10 (f88-4/Cys6 phage displaying a 16 mer cysteine-constrained peptide in pVIII) (peptide)
peptide: NPGTCKDKWIECLLNG
modifications: disulfide 5-12 (inferred); also: displayed on phage, cysteine-constrained, 99mTc-labelled in binding assays
B2 returned a Relative Binding (fold over control phage A3-12) in assay [1] of 4.3 fold.

B3: phage clone A3-19 (f88-4/Cys6 phage displaying a 16 mer cysteine-constrained peptide in pVIII) (peptide)
peptide: NLIWCRKEFARCTSDM
modifications: disulfide 5-12 (inferred); also: displayed on phage, cysteine-constrained, 99mTc-labelled
In assay [1], B3 returned a Relative Binding (fold over control phage A3-12) of 1.5 fold. The molecule RSGQCHDDTWNCLACV (disulfide 5-12; also: phage labelled with 99mTc via MAG3) [phage clone MPO-17 (f88-4/Cys6 phage displaying a 16 mer cysteine-constrained peptide in pVIII)] yielded a Relative Binding (% bound after subtraction of control phage MPO-4) in assay [2] of 8%. Same read-out and setting: the same measure for TVMLCNPMEQGCRWMC (disulfide 5-12; also: phage labelled with 99mTc via MAG3) [phage clone MPO-15 (f88-4/Cys6 phage displaying a 16 mer cysteine-constrained peptide in pVIII)]: 4.5%.

As a reminder, the Kd is the constant that tells how readily two partners part at equilibrium. A low value points to higher affinity. With RSGQCHDDTWNCLACVGGSGGGC (also: cysteine-constrained, Cys pairing not given here) [MPO-17 twenty-three mer synthetic polypeptide], in assay [3], the dissociation constant (Kd) was determined as 0.9 µM. For the same molecule, the UV peak for the enzyme, % of total protein at 5 min of incubation (% of total protein) in assay [4] was 16. This molecule gave a UV peak for the enzyme, % of total protein after 2 hours incubation (% of total protein) in assay [5] of 46. In assay [2], HVLGCSYATNSCAHNA (disulfide 5-12; also: phage labelled with 99mTc via MAG3) [phage clone MPO-6 (f88-4/Cys6 phage displaying a 16 mer cysteine-constrained peptide in pVIII)] showed a Relative Binding (% bound after subtraction of control phage MPO-4) of 5.8%.

B4: phage clone A3-21 (f88-4/Cys6 phage displaying a 16 mer cysteine-constrained peptide in pVIII) (peptide)
peptide: LKNYCRKCSNRCTPTG
modifications: disulfide (positions not given here); also: displayed on phage, cysteine-constrained, 99mTc-labelled
Molecule B4 came in with a Relative Binding (fold over control phage A3-12) in assay [1] of 1 fold.
